Data set [1] deals with the molecule itself. Nature of the data set: cross-linking.
The data set “EPR” concerns the molecule itself. Nature of the data set: EPR.
For a further data set, the target named is LexA A29R1 (LexA29) (Escherichia coli K-12 RW118, UniProt P0A7C2 1-202, A29C). Nature of the data set: EPR.
A further data set concerns the target LexA G54R1 (LexA54) (Escherichia coli K-12 RW118, UniProt P0A7C2 1-202, G54C). Nature of the data set: EPR.
For data set [2], the target named is T1, LexA repressor (wild type) (E. coli K-12 strain RW118, UniProt P0A7C2 1-202).
T1 sequence (looked up): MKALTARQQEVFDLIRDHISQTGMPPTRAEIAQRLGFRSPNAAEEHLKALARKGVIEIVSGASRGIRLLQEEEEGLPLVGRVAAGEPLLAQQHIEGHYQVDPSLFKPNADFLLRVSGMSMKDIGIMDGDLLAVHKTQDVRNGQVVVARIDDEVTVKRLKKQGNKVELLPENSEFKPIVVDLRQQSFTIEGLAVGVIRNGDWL
Nature of the data set: cross-linking.

Data set [3] deals with the molecule itself. Nature of the data set: cross-linking. This is another data set of the same source.

B1: LexA54 (Gly54 replaced by Cys), oxidized (natural protein, E. coli K-12 strain RW118, UniProt P0A7C2 1-202, looked up)
chain: MKALTARQQEVFDLIRDHISQTGMPPTRAEIAQRLGFRSPNAAEEHLKALARKCVIEIVSGASRGIRLLQEEEEGLPLVGRVAAGEPLLAQQHIEGHYQVDPSLFKPNADFLLRVSGMSMKDIGIMDGDLLAVHKTQDVRNGQVVVARIDDEVTVKRLKKQGNKVELLPENSEFKPIVVDLRQQSFTIEGLAVGVIRNGDWL
modifications: covalently bound at residue 54 after oxidation with 0.1 mM CuSO4 and 0.5 mM 1,10-phenantroline
Consider B1, for which the binding result in “cross-linking [1]” is listed as “binds”.

B2: LexA29 spin labeled (A29R1) (natural protein, E. coli K-12 strain RW118, UniProt P0A7C2 1-202, looked up)
chain: MKALTARQQEVFDLIRDHISQTGMPPTRCEIAQRLGFRSPNAAEEHLKALARKGVIEIVSGASRGIRLLQEEEEGLPLVGRVAAGEPLLAQQHIEGHYQVDPSLFKPNADFLLRVSGMSMKDIGIMDGDLLAVHKTQDVRNGQVVVARIDDEVTVKRLKKQGNKVELLPENSEFKPIVVDLRQQSFTIEGLAVGVIRNGDWL
modifications: MTSSL nitroxide spin label (R1) on the cysteine at position 29
As for B2, the binding result in “EPR” is “binds”.

B3: LexA54 spin labeled (G54R1) (natural protein, E. coli K-12 strain RW118, UniProt P0A7C2 1-202, looked up)
chain: MKALTARQQEVFDLIRDHISQTGMPPTRAEIAQRLGFRSPNAAEEHLKALARKCVIEIVSGASRGIRLLQEEEEGLPLVGRVAAGEPLLAQQHIEGHYQVDPSLFKPNADFLLRVSGMSMKDIGIMDGDLLAVHKTQDVRNGQVVVARIDDEVTVKRLKKQGNKVELLPENSEFKPIVVDLRQQSFTIEGLAVGVIRNGDWL
modifications: MTSSL nitroxide spin label (R1) on the cysteine at position 54
Take B3: the binding result in “EPR” was “binds”.

B4: tisB operator 24 bp (Tis_1b/Tis_2b) (dsDNA)
DNA 1: TTTACTGTATAAATAAACAGTAAT
DNA 2: ATTACTGTTTATTTATACAGTAAA
In the case of B4, the binding result with LexA A29R1 (LexA29) and in the data set with LexA G54R1 (LexA54) was “binds” each time.

B5: LexA C-terminal fragment (CTD), product of self-cleavage (domain or fragment, E. coli K-12 strain RW118, UniProt P0A7C2 85-202, looked up)
chain: GEPLLAQQHIEGHYQVDPSLFKPNADFLLRVSGMSMKDIGIMDGDLLAVHKTQDVRNGQVVVARIDDEVTVKRLKKQGNKVELLPENSEFKPIVVDLRQQSFTIEGLAVGVIRNGDWL
With B5, the binding result (in data set [2]; in “cross-linking [3]”) was “binds” throughout.
